Columns and labels:
[1] = molecular target: PrP^C, nonpathogenic (cellular) form of the human prion protein (in normal human brain homogenate and human plasma) (human) (UniProt P04156)
[2] = molecular target: PrP^C, nonpathogenic (cellular) form of the human prion protein (in normal human brain homogenate and human plasma) (human) (UniProt P04156); remark: listed apart in the source

Row | Substance | ave (RLU), Nomal BH [1] | LU [2]
1 | 3F4 antibody | 14.6 RLU | –
2 | mAb SAF32 (antibody) | – | 888 LU
